This note sets out measurements from PMC3884669.

This assay addresses Drosophila CstF64 (Drosophila (endogenous in Kc cells)) (UniProt Q86NL1). Nature of the assay: co-IP.

In the case of “Drosophila Lsm11 (endogenous) (natural protein)”, the percent precipitated by the anti-CstF64 antibody is over 10%.
